According to patent US20210238276A1 (INTEGRAL MOLECULAR, published 2021):

Columns and labels:
Assay in all cases: flow cytometry, alanine-scan library in HEK-293T, with cytochalasin B
hsGLUT4 N508A = molecular target: T1, hsGLUT4 N508A (human, UniProt P14672 1-509)
T1 sequence: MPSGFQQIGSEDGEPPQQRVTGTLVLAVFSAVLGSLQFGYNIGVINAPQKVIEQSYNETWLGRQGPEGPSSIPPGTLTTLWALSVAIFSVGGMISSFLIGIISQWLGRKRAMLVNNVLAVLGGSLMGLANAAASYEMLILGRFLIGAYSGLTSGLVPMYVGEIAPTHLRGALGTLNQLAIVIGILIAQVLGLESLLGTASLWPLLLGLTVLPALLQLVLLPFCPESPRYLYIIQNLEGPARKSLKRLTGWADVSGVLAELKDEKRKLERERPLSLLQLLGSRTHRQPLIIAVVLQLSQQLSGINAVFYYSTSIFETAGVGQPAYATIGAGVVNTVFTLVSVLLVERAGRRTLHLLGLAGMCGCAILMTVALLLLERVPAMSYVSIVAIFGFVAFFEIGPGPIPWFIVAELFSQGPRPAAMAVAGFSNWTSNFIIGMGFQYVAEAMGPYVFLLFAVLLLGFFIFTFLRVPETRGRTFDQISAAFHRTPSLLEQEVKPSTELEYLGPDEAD
Procedure: (§1) Because of the state-dependence of the isolated MAbs, we next wished to understand the mechanism by which each MAb could recognize GLUT4 in its different conformations. The residues required for binding of each MAb were determined using shotgun mutagenesis comprehensive alanine scanning (Davidson E & Doranz B J (2014) A High-Throughput Shotgun Mutagenesis Approach to Mapping B-cell Antibody Epitopes. Immunology, which is hereby incorporated by reference in its entirety). All residues of hsGLUT4 were individually mutated to alanine, with existing alanines changed to serines. Mutations were obtained for 508 of the 509 residues of GLUT4 (excluding the initiating methionine). The entire mutation library was transfected into human HEK-293T cells in a 384-well array format (one clone per well) and assessed for immunoreactivity using high-throughput flow cytometry.
(§2) HEK-293T cells were transfected by CaPO₄ with plasmids in 6-well culture plates (Falcon) at 750,000 cells/well. At 48 hours post transfection, cells were stained with anti-V5 and anti-GLUT4 MAbs (purified scFv, 2 μg/ml) followed by biotinylated goat anti-mouse or human antibody (1:500) and streptavidin-PerCP (1:500). Fluorescence was detected using an Intellicyt high-throughput flow cytometer (HTFC; Intellicyt, Albuquerque, N. Mex.). For cell permeabilization, cells were treated with saponin at 0.1% in PBS for 20 minutes. To discriminate intact (live) and permeabilized (dead) cells without the use of detergent, propidium iodide (PI) was added to HEK-293T cells at 1 ug/ml just prior to flow cytometry. Where indicated, cytochalasin B (Sigma) was used at a final concentration of 10 uM and phloretin (Sigma) was used at a final concentration of 100 uM, each added in 10% NGS for 30 minutes prior to antibody staining as well as included with the primary antibody.

hsGLUT4 V306A = molecular target: T2, hsGLUT4 V306A (human, UniProt P14672 1-509)
T2 sequence: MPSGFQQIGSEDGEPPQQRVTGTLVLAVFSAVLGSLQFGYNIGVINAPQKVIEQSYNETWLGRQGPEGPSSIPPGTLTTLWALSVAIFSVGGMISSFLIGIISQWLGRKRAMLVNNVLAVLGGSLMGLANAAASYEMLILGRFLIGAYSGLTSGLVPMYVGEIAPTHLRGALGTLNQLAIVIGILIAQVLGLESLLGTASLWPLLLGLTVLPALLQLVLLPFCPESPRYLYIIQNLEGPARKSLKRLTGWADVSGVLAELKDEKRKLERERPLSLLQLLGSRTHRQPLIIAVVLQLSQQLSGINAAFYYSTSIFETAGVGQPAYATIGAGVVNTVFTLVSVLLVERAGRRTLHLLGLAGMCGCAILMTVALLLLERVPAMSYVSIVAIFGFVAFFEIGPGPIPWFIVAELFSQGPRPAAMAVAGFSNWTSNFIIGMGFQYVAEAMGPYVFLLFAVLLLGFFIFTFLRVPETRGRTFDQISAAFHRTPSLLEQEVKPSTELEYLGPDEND
Procedure: as §1, §2

hsGLUT4 M158A = molecular target: T3, hsGLUT4 M158A (human, UniProt P14672 1-509)
T3 sequence: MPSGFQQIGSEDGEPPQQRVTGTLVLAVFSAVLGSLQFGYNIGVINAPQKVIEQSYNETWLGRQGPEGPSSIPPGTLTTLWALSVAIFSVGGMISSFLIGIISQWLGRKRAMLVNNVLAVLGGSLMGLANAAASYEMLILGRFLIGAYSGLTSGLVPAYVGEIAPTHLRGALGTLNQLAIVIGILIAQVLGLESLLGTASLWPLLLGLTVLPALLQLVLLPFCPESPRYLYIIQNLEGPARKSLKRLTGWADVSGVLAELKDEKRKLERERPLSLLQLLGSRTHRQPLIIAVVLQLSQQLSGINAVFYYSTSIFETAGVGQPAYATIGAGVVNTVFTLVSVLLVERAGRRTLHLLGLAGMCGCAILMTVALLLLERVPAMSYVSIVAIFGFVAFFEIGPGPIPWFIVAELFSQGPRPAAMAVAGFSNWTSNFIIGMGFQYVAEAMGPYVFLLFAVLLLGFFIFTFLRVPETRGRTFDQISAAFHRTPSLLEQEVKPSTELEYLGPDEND
Procedure: as §1, §2

hsGLUT4 F405A = molecular target: T4, hsGLUT4 F405A (human, UniProt P14672 1-509)
T4 sequence: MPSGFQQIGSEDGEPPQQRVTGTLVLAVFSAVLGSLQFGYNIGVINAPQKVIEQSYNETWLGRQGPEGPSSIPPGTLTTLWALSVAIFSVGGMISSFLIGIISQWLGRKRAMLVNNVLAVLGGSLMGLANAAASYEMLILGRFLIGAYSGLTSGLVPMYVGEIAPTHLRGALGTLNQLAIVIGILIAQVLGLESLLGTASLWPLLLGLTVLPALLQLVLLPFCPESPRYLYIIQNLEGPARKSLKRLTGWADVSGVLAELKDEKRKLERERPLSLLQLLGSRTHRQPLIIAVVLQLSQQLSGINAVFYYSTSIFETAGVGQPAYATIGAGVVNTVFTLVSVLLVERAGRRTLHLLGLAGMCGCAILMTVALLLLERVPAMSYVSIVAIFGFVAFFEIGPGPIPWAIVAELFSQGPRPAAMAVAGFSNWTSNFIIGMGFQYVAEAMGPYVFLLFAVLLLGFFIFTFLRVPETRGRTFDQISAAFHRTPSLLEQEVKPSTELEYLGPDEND
Procedure: as §1, §2

B1: AB102 (Fc fusion)
scFv: ALTQPSSVSANLGGTVKITCSGGGSYGYGWYQQKSPGSAPVTVIYSNDQRPSDIPSRFSGSKSGSTATLTITGVRAEDEAIYYCGSTDSDYVGIFGAGTTLTVLGQSSRSSGGGGSSGGGGSAVTLDESGGGLQTPGGTLSLVCKASGFDFSSYATIWVRQAPGKGLEWVAGISGTGTGSSTGYAPAVKGRATISRDNGQSTVRLQLNNLRAEDTGSYFCAKSTGYGDSWIYPDSIDAWGHGTEVIVSS
notes: also called MAb AB102; not shown: Fc fragment of human IgG1, cloned in frame with the scFv
For B1, the “% of binding to wild type GLUT4” value (hsGLUT4 N508A) was 70%, the “% of binding to wild type GLUT4” value (hsGLUT4 V306A) was 29% and the “% of binding to wild type GLUT4” value (hsGLUT4 M158A) was 85%. The “% of binding to wild type GLUT4” value (hsGLUT4 F405A) was 105%.
